Reference: patent US12723075B2, “Humanized antibodies directed against KCNK9” (The Johns Hopkins University, priority 2020, dated 2026)

What was measured:
human KCNK9 = molecular target: T1, human KCNK9 (Homo sapiens, UniProt Q9NPC2); assay: Flow cytometry binding to KCNK9-expressing HEK293 cells; conditions: for Binding affinity to human KCNK9 relative to parental murine monoclonal antibody: PE conjugate secondary antibody (FIG. 1B)
T1 construct: expressed in transfected cells; host or cells: HEK293 cells, stably transfected, tetracycline-inducible promoter
Description: An anti-KCNK9 mouse monoclonal antibody having a VH amino acid sequence of SEQ ID NO: 1 and a VL amino acid sequence of SEQ ID NO: 2 (mu-mAb) was humanized using a method based on Queen et al., Proc. Natl. Acad. Sci. USA, 86: 10029-10033 (1989). The hybridoma antibody was sequenced after amplifying the antibody variable regions by RT-PCR with degenerate primers. The variable regions were fused with the human antibody IgG1 constant regions to produce a chimeric antibody. Antigen binding of the chimeric antibody was confirmed by staining of the KCNK9-expressing cells. HEK293 cells were stably transfected with KCNK9 expression vector under the tetracycline inducible promoter. After induction, the cells were incubated with various concentrations of chimeric KCNK9 antibody for 30 minutes, followed by secondary anti-human Fc FITC conjugate. Chimeric antibody binding was analyzed by flow cytometry. High affinity binding was confirmed with an EC50 of about 0.3 μg/mL (FIG. 1A).
After antibody sequence analysis and structure modeling, the murine antibody CDRs (SEQ ID NOs: 3-8) were grafted into human antibody VK3-11 and VH1-3 frameworks. Critical murine antibody framework residues that support CDR conformation were identified and introduced into the human frameworks. Five variants of the humanized VH sequences (VH1-5; SEQ ID NOs: 9-13) and three variants of the humanized VL variants (VL1-3; SEQ ID NOs: 14-16) were designed and synthesized. All of the variable regions were cloned into a human IgG1 expression vector. The VHs and VLs were cross-matched to generate 15 humanized KCNK9 antibody clones. All humanized antibodies were produced by transient transfection in 293 cells and purified by Protein A chromatography. Antigen binding of the humanized KCNK9 antibodies was characterized by immunofluorescence staining of KCNK9-expressing cells.

[1] = tested on: KCNK9-expressing BEN lung carcinoma cells; assay: Cell growth and viability assays (cell numbers, MTT, trypan blue exclusion); assay type: cell-based, human; conditions: 0.4 mg/mL (FIGS. 4A-4C)
Procedure: The cytotoxic effect of the AF-H4L3 and AF-H5L2 monoclonal antibodies was tested on KCNK9-expressing BEN lung carcinoma cells. Equal numbers of viable BEN cells were treated with AF-H4L3, AF-H5L2, or human IgG control (0.4 mg/mL). Cells were collected at indicated days after treatment for cell growth and viability assays.

[2] = tested on: BEN lung carcinoma xenografts; assay: Pre-established BEN lung carcinoma xenografts in nude mice; assay type: in vivo; conditions: 4 mg/kg b.w. twice per week, established tumors, p<0.01 (FIGS. 6A-6D)
Procedure: Equal numbers of viable BEN cells (4×10^6 cells) were implanted into the flanks of nude mice. Humanized anti-KCNK9 monoclonal antibodies AF-H4L3, AF-H5L2, or control human IgG (4 mg/kg b.w.) were administered twice per week after tumor xenografts were established and palpable. Tumor volumes were then monitored during treatments using caliper measurements every alternate day (N=10 for each group).

[3] = tested on: LX22 PDX small cell lung cancer cells; assay: ADCC Reporter Bioassay with luciferase Jurkat effector cells; assay type: cell-based, human; conditions: six hours at 4° C. or 37° C. (FIG. 3)
Procedure: The capacity of the humanized KCNK9 AF-H5L2 monoclonal antibody to induce ADCC directed against LX22 PDX small cell lung cancer cells also was evaluated. ADCC assays were performed using the ADCC Reporter Bioassay Complete Kit (Promega #G7015). Human lung CA KCNK9+LX22 cells or CD20+ Raji cells (as positive control) were plated at 50,000 cells per well. On the following day, humanized afucosyl anti-KCNK9 (hu-AF-H5), hu-anti-CD20, or non-immune huIgG1 (as negative control) was added. 30 minutes later, FcγIIIa+ Jurkat effector cells expressing the vNFAT-luciferase ADCC reporter were added (300,000 cells/well). Cell mixtures were incubated for six hours at either 4° C. or 37° C. Cells were collected, solubilized, and luciferase activity was quantified as a biomarker of Jurkat cell activation.

[4] = tested on: KCNK9-positive BT549 carcinoma cells; assay: Cell viability, KCNK9-positive breast cancer cells; assay type: cell-based, human; conditions: BT549, KCNK9-positive (FIG. 5)
[5] = tested on: KCNK9-negative MDA-MB-231 cells; assay: Cell viability, KCNK9-negative cells; assay type: cell-based, human; conditions: MDA-MB-231, KCNK9-negative (FIG. 5)
[6] = tested on: Human LX22 PDX-derived lung carcinoma cells; assay: MTT cell viability in combination with PARP or CDK4/6 inhibitor; assay type: cell-based; conditions: 72 hours
Procedure: Inhibitors of poly-ADP ribose polymerase (PARP) and cyclin dependent kinases (CDK4/6) are FDA-approved and undergoing clinical testing for multiple solid tumors. It was investigated whether inhibiting the KCNK9 K^+ channel with huKCNK9 mAb sensitized cancer cells to these therapeutics. Human LX22 PDX-derived lung carcinoma cells were treated with the PARP inhibitor AZD2461 (100 μM)+/−huKCNK9 mAb (400 μg/ml) or with the CDK4/6 inhibitor palbociclib (0.5 μM)+/−huKCNK9 mAb (400 μg/ml) for 72 hours. Cell viability was then quantified by MTT assay. Statistical comparisons were performed by ANOVA and post-hoc Tukey test.

T1 sequence (Q9NPC2 whole entry): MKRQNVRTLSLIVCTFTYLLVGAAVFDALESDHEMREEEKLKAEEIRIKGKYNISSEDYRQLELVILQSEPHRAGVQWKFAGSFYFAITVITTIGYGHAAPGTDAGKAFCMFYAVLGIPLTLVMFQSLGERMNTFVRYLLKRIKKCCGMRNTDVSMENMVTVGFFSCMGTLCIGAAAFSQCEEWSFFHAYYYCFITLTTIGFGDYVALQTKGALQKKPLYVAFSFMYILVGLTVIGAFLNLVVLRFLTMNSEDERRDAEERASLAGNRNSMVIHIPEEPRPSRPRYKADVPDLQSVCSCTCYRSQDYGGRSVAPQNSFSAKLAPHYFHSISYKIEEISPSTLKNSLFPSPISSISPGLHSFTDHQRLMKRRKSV

B1: chimeric KCNK9 antibody: Murine anti-KCNK9 variable regions (SEQ ID NO: 1 and 2) fused with human antibody IgG1 constant regions (antibody, V domains shown)
VH: EVQLQQSGPELVKPGASVKTSCKASGYSFTGYYMYWVKQSPEKSLEWIGEINPSSGGTTYNQKFKAKATLTVDKSSSTAYMQLKSLTFEDSAVYYCARSGLRRRFYAMDYWGQGTSVTVSS
VL: DIVLTQSPASLAVSLGQRATVSCRASESVDSFGTTFMHWYQQKPGQPPKLLIYRASNLESGIPARFSGSGSRTDFTLTINPVEADDVATYYCQQSNKDPPTFGGGSKLEIK
modifications: human IgG1 constant regions lack entries; Mus
EC50 of binding to KCNK9-expressing HEK293 cells (human KCNK9; flow cytometry, 30 minutes incubation, anti-human Fc FITC secondary): about 0.3 μg/mL

B2: H4L3: Humanized KCNK9 IgG1 antibody clone, VH SEQ ID NO: 12 and VL SEQ ID NO: 16 (antibody, V domains shown)
VH: QVQLVQSGAEVKKPGASVKVSCKASGYSFTGYYMYWVRQAPGQRLEWMGEINPSSGGTTYNQKFKARVTLTVDKSASTAYMELSSLRSEDTAVYYCARSGLRRRFYAMDYWGQGTLVTVSS
VL: EIVLTQSPATLSLSPGERATLSCRASESVDSFGTTFMHWYQQKPGQPPRLLIYRASNLESGIPARFSGSGSRTDFTLTISSLEPEDFATYYCQQSNKDPPTFGGGTKVEIK
modifications: human IgG1 constant regions
Binding affinity to human KCNK9 relative to parental murine monoclonal antibody (human KCNK9): higher affinity than their parental KCNK9 murine monoclonal antibody

B3: AF-H4L3: Afucosyl version of H4L3 antibody generated using fut8−/− CHO cells (antibody, V domains shown)
VH: QVQLVQSGAEVKKPGASVKVSCKASGYSFTGYYMYWVRQAPGQRLEWMGEINPSSGGTTYNQKFKARVTLTVDKSASTAYMELSSLRSEDTAVYYCARSGLRRRFYAMDYWGQGTLVTVSS
VL: EIVLTQSPATLSLSPGERATLSCRASESVDSFGTTFMHWYQQKPGQPPRLLIYRASNLESGIPARFSGSGSRTDFTLTISSLEPEDFATYYCQQSNKDPPTFGGGTKVEIK
Effect on cell growth and viability [1]: inhibited cell growth and viability | Effect on tumor growth (tumor volume) [2]: significantly attenuated tumor growth

B4: AF-H5L2: Afucosyl version of H5L2 antibody generated using fut8−/− CHO cells (antibody, V domains shown)
VH: QVQLVQSGAEVKKPGASVKVSCKASGYSFTGYYMYWVRQAPGQRLEWIGEINPSSGGTTYNQKFKARATLTVDKSASTAYMELSSLRSEDTAVYYCARSGLRRRFYAMDYWGQGTLVTVSS
VL: EIVLTQSPATLSLSPGERATLSCRASESVDSFGTTFMHWYQQKPGQAPRLLIYRASNLESGIPARFSGSGSRTDFTLTISSLEPEDFAVYYCQQSNKDPPTFGGGTKVEIK
ADCC induction (luciferase activity of Jurkat effector cells) [3]: induced ADCC that was temperature dependent | Activity compared between the two clones, cell growth and viability [1]: comparatively more active | Effect on cell growth and viability [1]: inhibited cell growth and viability | Effect on cell viability [4]: inhibited the viability | Effect on cell viability [5]: without effecting the viability | Effect on tumor growth (tumor volume) [2]: significantly attenuated tumor growth | Effect on cell toxicity induced by PARP inhibition ([6]; 400 μg/ml mAb + AZD2461 100 μM, MTT (FIG. 7A)): substantially augmented | Effect on cell toxicity induced by CDK4/6 inhibition ([6]; 400 μg/ml mAb + palbociclib 0.5 μM, MTT (FIG. 7B)): substantially augmented

B5: H5L2: Humanized KCNK9 IgG1 antibody clone, VH SEQ ID NO: 13 and VL SEQ ID NO: 15 (antibody, V domains shown)
VH: QVQLVQSGAEVKKPGASVKVSCKASGYSFTGYYMYWVRQAPGQRLEWIGEINPSSGGTTYNQKFKARATLTVDKSASTAYMELSSLRSEDTAVYYCARSGLRRRFYAMDYWGQGTLVTVSS
VL: EIVLTQSPATLSLSPGERATLSCRASESVDSFGTTFMHWYQQKPGQAPRLLIYRASNLESGIPARFSGSGSRTDFTLTISSLEPEDFAVYYCQQSNKDPPTFGGGTKVEIK
modifications: human IgG1 constant regions
Binding affinity to human KCNK9 relative to parental murine monoclonal antibody (human KCNK9): higher affinity than their parental KCNK9 murine monoclonal antibody
